The source of these data is EP0730651B1.

The target of test [1] is soluble KGF receptor (FGFR(IIIb); K-sam) alkaline phosphatase fusion (FRAP) (murine) (UniProt P21803). The test is described as follows: displacement of 125I-FGF-7 from soluble FGFR2(IIIb)-AP.
For test [2] the target is unchanged. As to the kind of experiment: competition with 125I-FGF-7, receptor binding experiments like those of Example 6.

UniProt P21803, sequence (P21803 22-377): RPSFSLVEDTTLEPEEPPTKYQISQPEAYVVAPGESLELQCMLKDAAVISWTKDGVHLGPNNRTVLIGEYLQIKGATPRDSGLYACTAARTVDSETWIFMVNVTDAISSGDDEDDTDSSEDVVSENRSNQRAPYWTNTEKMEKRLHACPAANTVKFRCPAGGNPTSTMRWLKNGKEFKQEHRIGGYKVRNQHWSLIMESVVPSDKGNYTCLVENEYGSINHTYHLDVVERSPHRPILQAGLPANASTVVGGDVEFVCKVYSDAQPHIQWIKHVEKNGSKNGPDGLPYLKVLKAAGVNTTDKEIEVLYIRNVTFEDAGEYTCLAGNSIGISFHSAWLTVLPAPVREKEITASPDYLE

Regarding “FGF-2LA (human FGF-2 with surface loop residues 118 to 122 replaced by the corresponding bovine FGF-1 sequence) (ligand)”, the fold weaker binding than FGF-7 or FGF-1 in test [1] worked out at 5 times less.

Turning to “FGF-2LK (FGF-2 loop mutant containing the 9-residue loop sequence Ala-Lys-Trp-Thr-His-Asn-Gly-Gly-Glu from FGF-7) (from UniProt P09038 1-117; P09038 123-155) (ligand)”, the fold weaker potency of competition than unlabelled FGF-7 in test [2] stood at 100 times weaker.
